# Where a chain is given by its changes, count along the chain named.
# B1: antibody in the supernatant of B cell culture well 170B8 (antibody, V domains shown)
# VH: AVQLLESGGGLIQPGGSLRLSCAASGFTFSSYAMSWVRQAPGKGLEWVSAISGSGGSTFYADSVRGRFTISRDNSKNTLYLQMNSLRVEDTAVYYCAKEVMGPIFFDYWGQGTLVTVSS
# VL: EIVLTQSPGTLSLSPGERATLSCRASQSIISSALAWYQQKPGQAPRLLIYGASSRATGIPDRFSGSGSGTDFTLTISRLEPEDFAVYHCQQYGSTPLTFGGGTKVEIK
# B2: antibody in the supernatant of B cell culture well 250F2 (antibody, V domains shown)
# VH: QVQLVESGGDLVKPGGSLRLSCAASGFSFSGYYLSWIRQAPGKGLEWVSYISLSGSFIKYADSVKGRFTISRDNAKKTLHLQMNSLRAEDTAVYYCARRTGTTTVFDYWGQGTLVTVSS
# VL: EVVMTQSPATLSVSPGERATLSCRASQSVNSNLAWYQQRPGQAPRLLIYGASTRVTGIPARFSGSGSGTEFTLTISSLQSEDFAVYYCQQYNNWPLTFGGGTKVEIK
# B3: antibody in the supernatant of B cell culture well 283B2 (antibody, V domains shown)
# VH: QVQLVESGGGLVKPGGSLRLSCAASGFTFNVYYMNWIRQAPGKGLEWVSYISTSSSAIYYADSVKGRFTISRDNAKNSLYLQMNSLRAEDTAVYYCARRTGSTTVFDYWGQGTLVTVSS
# VL: B2 VL with V2I, M4L, V29I, S31N, R39K, V55A, R61K, D82N, N93K
# Target: Human 20.2 + 18mer
# Assay: ELISA, well supernatant on coated peptides
row,Binder,ELISA reading
1,B1,1.7
2,B2,0.4
3,B3,0.5
